In PMC9943651 one finds Kd and binding signal (fold weaker than wild type) data, which are given here for 4 sequences.

What is called pKd is the Kd on a negative log10 scale, so that one unit is a factor of ten.

pKd: −log10 of the molar value.

Data set [1] deals with Annexin A2 CTD (AnxA2) (Homo sapiens) (UniProt P07355). The data set can be described thus: fluorescence anisotropy. The note with it: 20 mM HEPES pH 7.0, 100 mM NaCl, 1 mM DTT, with 1 mM CaCl2, MgCl2 or EGTA, 50 nM labelled oligo, 0-120 uM protein, temperature not stated. In general terms: Fluorescence polarisation rises when a labelled molecule tumbles more slowly, as on binding a larger partner.
Annexin A2 CTD (AnxA2) (Homo sapiens), sequence (P07355 34-339): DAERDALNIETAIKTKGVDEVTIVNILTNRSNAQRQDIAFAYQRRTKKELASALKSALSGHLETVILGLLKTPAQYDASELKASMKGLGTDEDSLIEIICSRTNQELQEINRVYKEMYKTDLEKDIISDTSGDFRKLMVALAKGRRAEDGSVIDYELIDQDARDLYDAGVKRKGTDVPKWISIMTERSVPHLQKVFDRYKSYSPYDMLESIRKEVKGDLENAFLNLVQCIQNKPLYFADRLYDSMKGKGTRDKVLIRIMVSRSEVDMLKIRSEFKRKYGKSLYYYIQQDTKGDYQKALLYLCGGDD

The target of data set [2] is AnxA2 mutant #3 K115A;K119A;R205A;K206A (Homo sapiens) (UniProt P07355). Briefly: fluorescence anisotropy. The note with it: full PS DNA; no 2' modification; 20 mM HEPES pH 7.0, 100 mM NaCl, 1 mM DTT, with 1 mM CaCl2, MgCl2 or EGTA; 50 nM labelled oligo, 0-120 uM protein; temperature not stated.
AnxA2 mutant #3 K115A;K119A;R205A;K206A (Homo sapiens), sequence (P07355 34-339 K115A/K119A/R205A/K206A): as the sequence (P07355 34-339) above, with K82A, K86A, R172A, K173A counted along it

With “CTGCTAGCCTCTGGATTTGA [PTEN PS, labelled]”, the pKd in data set [1] (full PS DNA, no 2' modification) was 5.30. In addition, the binding signal (fold weaker than wild type) in data set [2] turned out to be 7. Regarding “GCCAGGCTGGTTATG [5-10 MALAT PS, labelled]”, in data set [1] (full PS, 5 nt 2'-MOE 5' wing + 10 nt DNA, 5-methyl-C), the negative logarithm of the Kd (pKd) is 5.03. In data set [1] (full PS, 5-10-5 2'-MOE gapmer, 5-methyl-C), “GCCAGGCTGGTTATGACTCA [5-10-5 MALAT PS, labelled]” showed a negative logarithm of the Kd (pKd) of 5.20.

“TTTTTTTTTTTTTTTTTTTG [T19G PS, labelled]” gave a pKd in data set [1] (full PS DNA) of 5.09.
